Reference: the nanobody polyreactivity screen of Harvey et al. (2022)

Experiment: yeast display, Sf9 membrane polyspecificity reagent, FACS + sequencing; frameworks hold sequencing errors
Method in brief: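 Genes from sorted yeast were amplified by colony PCR, read by MiSeq 2 × 250 sequencing and filtered on CDR length. These cells carried a synthetic nanobody library in Saccharomyces cerevisiae BJ5465 and were sorted by FACS into low and high (top ~1%) gates on anti-HA and streptavidin fluorescence. Polyreactivity is labelled according to the gate of origin.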

Sequence | polyreactivity (PSR sort gate)
QVQLVESGGGLVQAGGSLRLSCAPSGFTFVYYAMGWYRQAPGKERELVASISGGGRTYYADSVKGRFTISRDNAKNTVYLQMNSLKPEDTAVYYCAAEQYIRPYYRWVWVSYGYWGQGSQVTVSS | high polyreactivity
QVQLVESGAGIVQAGGSLRLSCAASGRTCTWYAMGWYTQAPGKERELVAAISKSGGSTYYADSVKGRFTISRDTAKNTVFLQMNSLKPEDTAVYYCNADFYGYFLGYGYWGQGTQVTVSS | low polyreactivity
QVQLVESGGGLVQAGGSLRLSCAASGFIFTGYAMGWYRQAPGKERELVATISRRGGSTYYADSVKGRFTISRDNAKNTVYLQMNSLKPEDTAVYYCAAQRTLYRSGFDSWGQGTQVTVSS | high polyreactivity
QVQLVESGGGLVQAGGSLRLSCSASGRILYSYSMGWYRQAPGKEREFVAAIRRSGGSTYYADSVKGRFTISRDNAKNTVYLQMNSLKPEDTAVYYCAAGRRYSGSYDYWGQGTQVTVSS | high polyreactivity
QVQLVESGGGLVQAGGSLRLSCAASGSTFRWNAMGWYRQAPGKERELVAAISNGGSTNYADSVKGRFTISRDNAKNSVYFQMNSLKPEDTAVYYCATDGWYGQHYYDYDFDYYYWGQGTQVTVSS | low polyreactivity
QVQIVESGVGLVQAGGSLRLSCAASGTIFARYAMGWYRQAPGKERELVAAISWRGGRTYYADSVKGRFTISRDNAKNTVYLQMNSLKPEVTAVYYCAARRQQRGANGGDYWGQGTQVTLSS | high polyreactivity
QVQLVESGGGLVQAGGSLRLSCAASGLTFGRYAMGWYRQAPGKERELVAAISSGGSTYYADSVKGRFTISRDNAKNTVYLQMNSLKPEDTAVYYCAADYVGWYFVSGRDYWGQGTQVTVSS | low polyreactivity
QVQLVESGGGLVQAGGSLRLSCAASGRILPWYAMGWYRQAPGKERELVARIRSTDSTNYADSVKGRFTISRDNAKNTVYLQMNSLKPEDTAVYYCAKVQWGFPYAWLGSDYWGQGTQVTVSS | low polyreactivity
QVQLVESGGGLVQAGGSLRLSCSASGRTFSSNAMGWYRKAPGKERELVAAITWSGGTTYYADSVKGRFTISRDNAKNTVYLQMNSQKPEDTAVYYCNAKRRGYTASVGYWGQGTQVTVSS | high polyreactivity
QVQLVESGGGLVQAGGSLRLSCAASGRIFDKYAMGWYRQAPGKERYLVAAIDWSGGSTYYADSVKGRFTISRDNAKNTVYLQMNRLKPEDNAVYYCAAYWYYEDGQSEARLYGYDYWGQGTQVTVSS | low polyreactivity
QVQLVESGGGLDQAGGSLRLSCAASGRIFYYYALGWYRQAPGKERELVAAITWIGTSTYYADSVKGRFTISRDNGKNTVYLQMNSLKPEDTAVYYCAAEGWVGAWWYVLDVRYDYWGQGTQVTVSS | low polyreactivity
QVQLQESGGGLVQAGGSLRLSCAASGYISQSSVMGWYRQAPGKEREFVASISYGATTYYADSVKGRFTISRDNAKNTVYLQTNSPKPEDTAVYYCAVWVKRGFSHRYWGQGTQVTVSS | high polyreactivity
QVQLVESGGGLVQAGGSLRLSCAASGHILFKYTMGWYRQAPGKERELVAAISRSGGTTYYADSVKGRFTISRDNAKNTVYLQMNSLKPEDTAVYYCAARVTPGRNGGGYWGQGTQVTVSS | high polyreactivity
QVQLAESGGGLVQAGGSLRLSCAASGSTFVAYAMGWYRQAPGKERELVAAITRSGGSTYYADSVKGRFTISRDNAKNTVYLQMNSLKPEDTAVYYCAARHYRSRDGYWGQGTQVTVSS | high polyreactivity
QVQLVESGGGLVQAGGSLRLSCAASGSSFWSNAMGWYRQAPGKEREFVAAINWSGDNTYYADSVKGRFTISRDNSKNKVYLKLISLKPEDTAVYYCIGVGDYPKYSGGFDYCGQGTQVTVSS | low polyreactivity
QVQLVESGAGLVQAGGSLRLSCAASGLTFIYNAMVWYRQAPGKERELVAAISGNGGDTYYADSVKGRFTLSRDNAKNTVYLQMNSLKPEDTAVYYCAADYAYTPITCDEYWGQGTKVTVSS | low polyreactivity

Sequence | polyreactivity (PSR sort gate)
QVQLVESGGGLVQAGGSHRLSCAASGLIFYYYAMGWYRQAPGKERELVAAITWTAGSTSYADSVKGRFTISRDNAKNTVYLQMNSLKPEDTAVYYCAADYRHDTFSNEYDYWGQGTQVTVSS | low polyreactivity
QVHLVESGGGLVQAGGSLRLSCAASGSTFRRNAMGWYRQAPGKERELVASITSGGSTYYADSVKGRFTITRDNAKNTVYLQMNSLKPEDTGVYYCAVVWRGGYRWPYEYWGQGTQVTVSS | low polyreactivity
QVQLVESGGGLDQAGGSLRLSCAASGSTFYSYDMGWYRQAPGKEREMVAAISSGGSTYYADSVKGRFTISRDNAKNTVYLQMNSLKPEDTEVYYCAAKRRATTGYRYDYWGQGTQGTVSS | high polyreactivity
QVQHVESGGGIVQAGGSLRLICAASGFPYARYAMGWNRQAPGNERELVAAITSAGSTSYADSVKGRFTISRYNAKNTDYFHMNSLKPEDTAVYYCAAVQYNQAYHYWGQGTQVTVSS | high polyreactivity
QLQLVESGGGLVQAGGSLRLSCAASGSIFYPYAMGWYRQAPGKERELVATINEDGGSTYYADSVKGRFTISRDNAKNTVYLQMNSLKQEDTAVYYCNTDHFEDYHTDFWSDYEYWGHGTQVTVSS | low polyreactivity
QVQLVESGGGLVQAGGSLRLSCAASGSNFYDYAMGWYRQAPGKERELVAAISSGGGTYYADSVKGRFTISRDNAKNTVYLQMNSLKPEDTAVYYCNADTYEWFSDFSEDSYDYWGQGTQVTVSS | low polyreactivity
QVQLVESGGGLVQAGGSLRLSCAASGRIIGRYAMGWYRQAPGKERELVAGITIRGGSTYYADSVKGRITISRDNAKNTVYLQMNSLKPEDTAVYYCAADDKGGLAVEYDYWGQGTQVTVSS | low polyreactivity
QVQLVESGGGLVQAGGSLRLSCAASGSTFSSYAMGWYRQAPGKEREFVAAISRSGVRTYYADSVKGRFTISRDNAKNSVYLQMNSLNPEDTVVYYCAAVSSLSYSFPYDYWGQGTQVTVSS | high polyreactivity
QVQLVESGGGLVQAGGSLRLSCAASGYTILTNAMGWYRQAPGKERELVADITSSGGSTYYADSVKGRFTISRDNAKNTVYLQMNSLKPEDTAVYYCAKRWYRNRYGYWGQGTQVTVSS | high polyreactivity
QVQLVESGGGLVQAGGSLRLSCAASGRIFLQYAMGWYRPAPGKERELVAAISRSGGSTYYADSVKGRFTISRDTAKNSVYLQMNSQKPEDTAVYYCAAALFGNRYYYWGQGTQVTVSS | low polyreactivity
QVQLVESGGGLVQAGGSLRLSCAASGSIFGGYAMGWYRQAPCQDRELVAAISTRGGSTYYADSVKGRFTISRDNAKNTVYLQMNSQKPEDTAVYYCAADYLDSSYGYVYGWDDYWGQGTQVNVSS | low polyreactivity
QVQLVESGGGLVQAGGSLRLSCAASGFTFYTYVMGWYRQAPGKERELVAAISGRGGSTYYADSVKGRFTISRDNAKNTVYLQMNSLKPEDTAVYYCATVRSYSRVVGYDYWGQGTQVTVSS | high polyreactivity
QVQLVESGGGLVQAGGSLRLSCAASGRTFGWYAMGWYRQAPGKERELVAAITSGTSTYYADSVKGRFTISRDNAKNTVYLQMYSLKPEDTAVYYCAVDRGISVGYTRFDYWGQGTEVTVSS | low polyreactivity
QVQLVESGGGLVQAGGSLRLSCAACGRIFSYNAMGWYRQAPGKERELVAAIRWRGGSTYYADSVKGRFTISRDNAKNTVYLQMNRLKPEDTAVYYCNALRYYHYDYWGQGTQVTVSS | high polyreactivity
QVQLVESGGGLVQAGGSLRLTCAASGFTFWWYTMGWYRQATGKERELVATITSGGRTNYADSVKGRFTISRDNAKNTVYLQMNSLKPEDTAVYYCNRVAYYSRYDTDDYWGQGTQVTVSS | high polyreactivity
